Test results: US12702694B2, “Methods for identification, assessment, prevention, and treatment of metabolic disorders using SLIT2” (Dana-Farber Cancer Institute, Inc., priority 2015, dated 2026)

Legend:
high fat diet-fed mice = assay: Whole body energy expenditure (CLAMS) and tissue weights; type: in vivo, Mus musculus
Method: (§1) Glucose tolerance tests were performed on mice 7 days post-injection with adenovirus. […] Animals were fasted overnight and then received intraperitoneal glucose at […]. Energy expenditure was analyzed using a Comprehensive Lab Animal Monitoring System (Columbus Instruments). Cold exposure and thermoneutrality experiments were performed in Balb/c mice at 4° C. or 30° C., respectively. Total levels of cholesterol, free fatty acids, triglycerides and insulin were measured at the Core Facility at Joslin Diabetes Center.

[1] = test system: primary inguinal fat cells; assay: Cellular oxygen consumption measured by Seahorse; type: cell-based, Mus musculus; conditions: recombinant Slit2-C 1 ug/mL (Calico/AbbVie), acute or 2 h treatment; FIG. 13
Method: Tissue respiration was performed using a Clark electrode (Stathkelvin Instruments). Freshly isolated tissues were dissected from mice treated with LacZ or Slit2-C adenovirus for 7 days. Equally sized pieces of tissue were minced and placed in respiration buffer containing PBS supplemented with 2% (w/v) bovine serum albumin, 1% (w/v) glucose, and 1 mM Na pyruvate. Oxygen (O2) consumption was normalized to tissue weight. Cellular oxygen consumption rates were determined using an XF24 Extracellular Flux Analyzer (Seahorse Biosciences). Primary brown fat adipocytes were seeded at 15,000 cells/well, differentiation was induced the following day as previously described, and the cells were analyzed on day 5. On the day of analysis, the cells were washed once with Seahorse respiration buffer (8.3 g/l DMEM, 1.8 g/l NaCl, 1 mM pyruvate, 20 mM glucose, pen/strep), placed in 0.5 ml Seahorse respiration buffer, and incubated in a C02-free incubator for 1 hr. […]
As described above in Examples 5-7, in vitro and in vivo data on respiration using Slit2-C adenovirus overexpression models and loss-of-function analyses in Seahorse assays are described. In vitro confirmation of the results was determined using an alternative source of recombinant Slit2-C (FIG. 13). […] Cellular oxygen consumption rates were determined as described in Example 1 Statistical analysis was performed as described in Example 1C above.

[2] = test system: receptor tyrosine kinases and intracellular kinases; assay: Phosphokinase array in primary inguinal cells; type: cell-based, Mus musculus; conditions: Slit2-C vs lacZ adenovirus, primary inguinal adipocytes
Method: (§2) For Western blotting, homogenized tissues, whole cell lysates, or concentrated serum free conditioned medium were lysed in RIPA buffer containing protease inhibitor cocktail (Thermo Scientific) and phosphatase inhibitor cocktail (Thermo Scientific), separated by SDS-PAGE and transferred to Immobilon-P® membranes (Millipore). For Western blotting of plasma samples, 1 μl of plasma was prepared containing 2× sample buffer (Invitrogen) with reducing agent, boiled and analyzed using Western blot against V5, FLAG, or the indicated antibody. V5-antibody was from Life Technologies and anti-Flag M2-HRP (A8592) from Sigma Aldrich. Anti-Slit2 antibody used was from Abcam (Abcam ab134166). Phospho-PKA Substrate, phospho-PKC Substrate, phospho-ERK1/2, total ERK, phospho-AKT, total AKT, phospho-AMPK, total AMPK, phospho-ATGL, ATGL, phospho-EGFR and EGFR were from Cell Signaling. Protein array was from R&D Systems (Proteome Profiler Mouse Phospho-RTK Array Kit, ARY014). Silverstain (SilverQuest™ Silver Staining Kit, LC6070) was purchased from Thermo Fisher.

[3] = test system: diet-induced obese (DIO) mice; assay: Adipose gene and UCP1 protein expression after adenovirus injection in diet-induced obese (DIO) mice; type: in vivo, Mus musculus
Method: All animal experiments were approved by the Institutional Animal Care and Use Committee of the Beth Israel Deaconess Medical Center. Mice (Mus musculus) were obtained from Jackson Laboratories, maintained in 12 hour light-lark cycles (6 a.m.-6 p.m.) at 22° C., and fed a standard irradiated rodent chow diet or a high-fat diet (60% fat) for 12-20 weeks. AAV-8 viruses (Penn Vector Core) and adenoviruses (Vector Biolabs or constructed in-house) were injected at a titer of 10^11 or 10^10 per mouse, respectively. All experiments were done with male mice. The aP2-PRDM16 transgenic mice have been previously described in Seale et al. (2011) J. Clin. Invest. 121:96-105. PRDM16-floxed mice were crossed with adiponectin-Cre and were maintained on a pure C57BL/6 background (Cohen et al. (2014) Cell 156:304-316). The Slit2-floxed mice have been described previously in Rama et al. (2015) Nat. Med. 21:483-491. Lean C57BL/6 mice were obtained from Jackson Laboratories and were […].
RNA was extracted from cultured cells or frozen tissue samples using TRIzol®, purified with QIAGEN RNeasy® minicolumns. Normalized RNA was reversed transcribed using a high-capacity cDNA reverse transcription lot (Applied Biosystems) and cDNA was analyzed by qRT-CPR. Relative mRNA levels were calculated using the comparative CT method and normalized to cyclophilin […]. All primers used are listed with their sequences in Table 3 as follows: […]
as §2

UCP1 = UCP1 immunohistochemistry on adipose tissue sections; type: in vivo, Mus musculus; conditions: day 7
Method: Tissues were fixed in 4% paraformaldehyde. Paraffin embedding and sectioning were done by the Dana-Farber/Harvard Cancer Center Research Pathology core facility. For UCP1 immunohistochemistry, slides were deparaffinized in xylene, hydrated in descending 95%, 80% and 70% ethanol, and rinsed in water before heat-mediated antigen retrieval in 10 mM, pH 6.0 sodium citrate buffer. Quenching of endogenous peroxidases was performed using peroxidase quenching solution (Invitrogen). Slides were blocked in 10% goat serum and incubated with rabbit polyclonal UCP1 antibody (Abcam, ab10983) at […] in PBS-T/1% BSA overnight at 4° C. Slides were washed in PBS-T and incubated with 1:500 donkey anti-rabbit IgG HRP-linked antibody (GE healthcare) before developing using a SuperPicture™ 3rd Gen IHC Detection Kit (Invitrogen). Hematoxylin was used as counterstain. […] Digital images were captured with a Nikon Digital Sight DS-Fil color camera and NIS-Elements acquisition software.

diet-induced obese mice = assay: Intraperitoneal glucose tolerance test; type: in vivo, Mus musculus
Method: as §1

[4] = 16-week high fat diet-fed mice, Slit2-C adenovirus vs LacZ

Molecule	body weight (high fat diet-fed mice; [4])	food intake (high fat diet-fed mice; [4])	locomotor activity (high fat diet-fed mice; [4])	respiratory exchange ratio (RER) (high fat diet-fed mice; [4])	whole-body oxygen consumption (high fat diet-fed mice; 16-week high fat diet-fed mice, Slit2-C adenovirus vs LacZ, normalized to total body weight)	mass of the brown and inguinal depots (high fat diet-fed mice; day 7 post-injection, FIGS. 8F, 8I)	cellular oxygen consumption vs results of Examples 5-7 [1]	phospho-EGFR and phospho-ERK1/2 (only two of 39 kinases tested) [2]	Fas in inguinal and brown fat ([3]; 16-week DIO mice, 7 days post-injection, FIGS. 7A-7B)	Hsl and Atgl expression ([3]; 16-week DIO mice, FIGS. 7A-7B)	Resistin in brown fat ([3]; FIG. 7C)	brown fat levels of Leptin ([3]; FIG. 7C)	induction of Ucp1 protein expression in BAT ([3]; Western blot quantification relative tubulin, DIO mice 7 days post-injection, FIG. 7D)	UCP1 staining in inguinal white fat depots (UCP1; Slit2-C vs control animals, FIGS. 6E, 6G)	glucose tolerance (diet-induced obese mice; diet-induced obese mice, circulating Slit2-C, day 7, FIG. 8G)	energy expenditure, compared with Slit2-C experiments (high fat diet-fed mice; full-length Slit2 adenovirus, FIGS. 9A-9E)	iWAT UCP1 protein (UCP1; histological sections, i.v. Slit2 adenovirus)	glucose tolerance, compared with Slit2-C experiments (diet-induced obese mice; full-length Slit2 adenovirus, FIG. 9F)
Slit2-C: ~50 kDa C-terminal cleavage fragment of Slit2 beginning at TSP (SEQ ID NO: 22); adenovirally expressed or purified FLAG-tagged protein (protein, listed as Homo sapiens, FLAG tag, adenovirally expressed or purified FLAG-tagged protein) TSPCDNFDCQNGAQCIIRINEPICQCLPGYLGEKCEKLVSVNFVNKESYLQIPSAKVRPQTNITLQIATDEDSGILLYKGDKDHIAVELYRGRVRASYDTGSHPASAIYSVETINDGNFHIVELLTLDSSLSLSVDGGSPKVITNLSKQSTLNFDSPLYVGGMPGKNNVASLRQAPGQNGTSFHGCIRNLYINSELQDFRKMPMQTGILPGCEPCHKKVCAHGMCQPSSQSGFTCECEEGWMGPLCDQRTNDPCLGNKCVHGTCLPINAFSYSCKCLEGHGGVLCDEEEDLFNPCQMIKCKHGKCRLSGVGQPYCECNSGFTGDSCDREISCRGERIRDYYQKQQGYAACQTTKKVSRLECRGGCAGGQCCGPLRSKRRKYSFECTDGSSFVDEVEKVVKCGCARCAS	no observable difference	no observable difference	no observable difference	no observable difference	induced	reduction	confirm the results	robust phosphorylation changes	reduction	unchanged	unchanged	marked reduction	1.3 fold	multiple pockets of UCP1-positive cells	dramatically improve			
Slit2: Slit family secreted extracellular matrix protein, full length ~180 kDa; used as commercial recombinant protein or adenovirally expressed (protein) QACPAQCSCSGSTVDCHGLALRSVPRNIPRNTERLDLNGNNITRITKIDFAGLRHLRVLQLMENRISTIERGAFQDLKELERLRLNRNNLQLFPELLFLGTAKLYRLDLSENQIQAIPRKAFRGAVDIKNLQLDYNQISCIEDGAFRALRDLEVLTLNNNNITRLSVASFNHMPKLRTFRLHSNNLYCDCHLAWLSDWLRQRPRVGLYTQCMGPSHLRGHNVAEVQKREFVCSGHQSFMAPSCSVLHCPAACTCSNNIVDCRGKGLTEIPTNLPETITEIRLEQNSIRVIPPGAFSPYKKLRRLDLSNNQISELAPDAFQGLRSLNSLVLYGNKITELPKSLFEGLFSLQLLLLNANKINCLRVDAFQDLHNLNLLSLYDNKLQTVAKGTFSALRAIQTMHLAQNPFICDCHLKWLADYLHTNPIETSGARCTSPRRLANKRIGQIKSKKFRCSGTEDYRSKLSGDCFADLACPEKCRCEGTTVDCSNQRLNKIPDHIPQYTAELRLNNNEFTVLEATGIFKKLPQLRKINFSNNKITDIEEGAFEGASGVNEILLTSNRLENVQHKMFKGLESLKTLMLRSNRISCVGNDSFIGLGSVRLLSLYDNQITTVAPGAFDSLHSLSTLNLLANPFNCNCHLAWLGEWLRRKRIVTGNPRCQKPYFLKEIPIQDVAIQDFTCDDGNDDNSCSPLSRCPSECTCLDTVVRCSNKGLKVLPKGIPKDVTELYLDGNQFTLVPKELSNYKHLTLIDLSNNRISTLSNQSFSNMTQLLTLILSYNRLRCIPPRTFDGLKSLRLLSLHGNDISVVPEGAFNDLSALSHLAIGANPLYCDCNMQWLSDWVKSEYKEPGIARCAGPGEMADKLLLTTPSKKFTCQGPVDITIQAKCNPCLSNPCKNDGTCNNDPVDFYRCTCPYGFKGQDCDVPIHACISNPCKHGGTCHLKEGENAGFWCTCADGFEGENCEVNIDDCEDNDCENNSTCVDGINNYTCLCPPEYTGELCEEKLDFCAQDLNPCQHDSKCILTPKGFKCDCTPGYIGEHCDIDFDDCQDNKCKNGAHCTDAVNGYTCVCPEGYSGLFCEFSPPMVLPRTSPCDNFDCQNGAQCIIRINEPICQCLPGYLGEKCEKLVSVNFVNKESYLQIPSAKVRPQTNITLQIATDEDSGILLYKGDKDHIAVELYRGRVRASYDTGSHPASAIYSVETINDGNFHIVELLTLDSSLSLSVDGGSPKVITNLSKQSTLNFDSPLYVGGMPGKNNVASLRQAPGQNGTSFHGCIRNLYINSELQDFRKMPMQTGILPGCEPCHKKVCAHGMCQPSSQSGFTCECEEGWMGPLCDQRTNDPCLGNKCVHGTCLPINAFSYSCKCLEGHGGVLCDEEEDLFNPCQMIKCKHGKCRLSGVGQPYCECNSGFTGDSCDREISCRGERIRDYYQKQQGYAACQTTKKVSRLECRGGCAGGQCCGPLRSKRRKYSFECTDGSSFVDEVEKVVKCGCARCAS																comparable results	increased	comparable results
